Measurements published in patent US20190241619A1.

Biological target: HLA-B15 (human)
Assay: experimental peptide-HLA binding affinity; method not described

| Substance | Binding affinity |
| --- | --- |
| HPV16 E7/15-23 peptide … | 4.68 µM |
| HPV16 E7/15-24 peptide … | 38.5 µM |
| HPV16 E7/15-25 peptide … | 7.3 µM |
